These results are taken from the DeepSol protein solubility set.

This series in a line: soluble on expression in E. coli; label from the status in PepcDB or PDB records.
Turning to “MDPVEAGDWIAGRPLQLVFLSGLNPVNKPAHNSIVNVFRNRTADKPPLHIRVVSGELDIPPKRETGSGKGILRREWPQKYLDKVPALIVVFIDLEWDHPSWEEKKTEAESKVASIRGSLRHGTKIALVLIQQKSTSISDNLAADRAHELCQACSLSSKQLFILPADNLLAPNTTNLQNFALKLELAFHELCQAFYQQRLKTIRSRNIPNNSPALVVRQQFKLAFLSELRQDTHTALRNYRLAYDQCRDTVEQWDGVDVFEWRSVVGLLNYKVQQGLLKTKNSVISTRGMCELCFLHSTALEAINQMRRHTTVFFSSSPGIYPTPHLASIELLLWKSKQCYQFAHLFERSVAGGLSALATLNPGTHLDQAASIYSAANTEIAALKRNAPQNVPYPSPDPLANSSSTVFFGQRPWRINHEGLATAEVEAAAVTAIIQRLVVNHEGVISLLSAALAQYQKYGCLRMKKKVMMEMANTCYANNEIQRALRFWGLVVKDNALPYSIRKDMMHRATWAAYAITSIQDYAVCCMQLMCPAYSEVLPSDCVKGLLDVLDGKPPGSPFPNDDISQEQLHTYQLQWQHVLQEHPAFVVQASKIAELFLETRVSFLDQQTVEQDSKVAVRVEIVSKIEQVIRLNDVSVHLKAKKFPPDANQTANDADCLIYDPIHLGSVEVSKSKPLQRVVLLDLKNAKQNWIVTVTKVTLDLGNAIRGNIEFDENALNRNCHVENIIGLEFLKIGVAKTSVKLESVEKVDCLIGEVTSTELTIRNTCKSSPIHGLQLDFKRKEQKHAEAAAVLFVEQDGTELKSEFSKSVCEQLGAGEMAKIPVMFSAQLVGDYVLQLELSYKISEDGILVTKSTMLEVGVTAKEPFTVTSTVMNMNGIPMTSILNNCDHILNASIQSAASIVISSVEFLMADVVTLCDTINGGSGKNLNDKVHSEEVICYSAVIRVLVKEDESETPLGRMSVEWRRAVPNSCPVRSVAPLCRIPVLACPISISSHIKTNPAIVRQPIEICFELKSHSKEAVEISTNFDLNDVFMFSGERKVTMTVLPGATRRVTVVVMALSAGRLNFPKISLKSPQISDQTLQQSLRTLPAAIFVLPKAKDLAPHP”, the “soluble on expression in E. coli” value is recorded as “not soluble”. Take “MDPVRILRHLITGQSAIKRAFPPATLTVIEQAIAHSETLHGGEIVFAVEASLDLPLLLQNQIIRERAIDVFSLLRVWDTEHNNGVLIYLLMADHDVEIVADRGIHTKVDQTIWETACDTMKTTFRHGQFEQGVLAGIDLSTRVLQQFFPASTGKRKSELPDRPVVLLEHHHHHH”: the “soluble on expression in E. coli” value is “not soluble”. Regarding “MDQAELSIEQVLKRDIPWETYMNTKLVSAKGLQLLRRYDKKPESARAQLLDEDGPAYVHLFVSILRDIFKEETVEYVLALIYEMLSANPTRARLFHDESLANEDTYEPFLRLLWKGNWFIQEKSCKILAWIISARPKAGNAVIGNGIDDVLKGLVEWLCAQLKQPSHPTRGVPIAISCLSSLLKEPVVRSSFVQADGVKLLVPLISPASTQQSIQLLYETCLCIWLLSYYEPAIEYLATSRTMQRLTEVVKHSTKEKVVRVVILTFRNLLPKGTFGAQMVDLGLPHIIHSLKTQAWSDEDLLDALNQLEEGLKDKIKKLSSFDKYKQEVLLGHLDWNPMHKETNFWRENVTCFEENDFQILRVLLTILDTSSDPRSLAVACFDISQFIQYHAAGRVIVADLKAKERVMKLINHENAEVTKNAILCIQRLLLGAKYASFLQA”, the “soluble on expression in E. coli” value is recorded as “soluble”. On to “MDQVVVFQKMFEQVRKEQNFSWFYSELKHHRIAHYIYYLATDNIRIITHDDTVLLLRGTRNLLKVSTTKNPAKIKEAALLHICGKSTFREYCSTLAGAGVFRWVTDVNHNKRSYYAIDNTLLYIEDVENNKPLI”, for which the “soluble on expression in E. coli” value is “not soluble”. Take “MDRAPVSSRRPCASQDPQRRPLCREEEGATPTALAVSSTTLGGRGGAHMCSCTVSSPNREGTCSSNILSYTLTHSTSPVVPWGCGRQPNHLQAPPRLAPLTESPIVARGFGPPPIAPAPLALAESSEHALCAPQLTFTAGAPGGTCLCSARSALPLLPFSSVLTASQRATPVPVWRRSKPLTRLPATTLGPTLSGNSGSPDDVVVALSDASMPKGETGEWMCAEASLQPSAAEPTPNAGSAVRHVDYQAAATQTGCVGSSLAAKVATESSQMALPDALAHLVEPPQGASAPSKTATDQLVNAPVGDIELRKRREEDSSDARASLSSALSSLGHPSNHNVHSSVDGVLWAHEAPEQPAYAHQHQLPAIFSQLVQDLLAAEPRADVEGDDDLLERWIQSWFENRCMTQPLQQSRSNSMKHLRTLQEAAVGAIANGAYVQGARSSNYVEPREKPAVDKNVGDATHAGPAARPAAGPSTTISASAAVTRTTTKSASAQLFPSSTAASPPHQYVPLTVEYSCSTLQSRMTSGASQRATSPPKPPQAQPLPVSPGTLHTAGASSTPGPPPHSAADGGGGVLAAVVGLSSPPQQPQQQPQPAKPLSGGPHLPAPASTRSMSSKQTVVAAAALAGGGEGDKGASGARPKLATTACAVFAHSSSSSAPKEAAHPHE”: the “soluble on expression in E. coli” value is listed as “soluble”. Turning to “MDRRRFLVGLLGLGLARGQGLRVEEVVGGLEVPWALAFLPDGGMLIAERPGRIRLFREGRLSTYAELSVYHRGESGLLGLALHPRFPQEPYVYAYRTVAEGGLRNQVVRLRHLGERGVLDRVVLDGIPARPHGLHSGGRIAFGPDGMLYVTTGEVYERELAQDLASLGGKILRLTPEGEPAPGNPFLGRRGARPEVYSLGHRNPQGLAWHPKTGELFSSEHGPSGEQGYGHDEVNLIVPGGNYGWPRVVGRGNDPRYRDPLYFWPQGFPPGNLAFFRGDLYVAGLRGQALLRLVLEGERGRWRVLRVETALSGFGRLREVQVGPDGALYVTTSNRDGRGQVRPGDDRVLRLL”, the “soluble on expression in E. coli” value is given as “soluble”. In the case of “MDSFLMKGYIKEANIDYSCSRGSMEDLPKWEFREIPKVPRAVMPSLSLEERKNNFNEVELGLSEEVARKEARRCLKCGCSARFTCDLRKEASNHGIVYEEPIHDRPYIPKVDDHPFIVRDHNKCISCGRCIAACAEIEGPGVLTFYMKNGRQLVGTKSGLPLRDTDCVSCGQCVTACPCAALDYRRERGKVVRAINDPKKTVVGFVAPAVRSLISNTFGVSYEEASPFMAGLLKKLGFDKVFDFTFAADLTIVEETTEFLSRIQNKGVMPQFTSCCPGWINFVEKRYPEIIPHLSTCKSPQMMMGATVKNHYAKLMGINKEDLFVVSIVPCLAKKYEAARPEFIHDGIRDVDAVLTTTEMLEMMELADIKPSEVVPQEFDEPYKQVSGAGILFGASGGVAEAALRMAVEKLTGKVLTDHLEFEEIRGFEGVKESTIDVNGTKVRVAVVSGLKNAEPIIEKILNGVDVGYDLIEVMACPGGCICGAGHPVPEKIDSLEKRQQVLVNIDKVSKYRKSQENPDILRLYNEFYGEPNSPLAHELLHTHYTPKHGDSTCSPERKKGTAAFDVQEFTICMCESCMEKGAENLYNDLSSKIRLFKMDPFVQIKRIRLKETHPGKGVYIALNGKQIEEPMLSGNIPDESESE”, the “soluble on expression in E. coli” value is given as “soluble”. Take “MDSHQQPYASQAQADTTLFPEQTRESLQALAVKLQPLIEGHRLDNLVDLLSLLSDIVDLLDPAMVDRLAQLFEQVTSVGWSVGNAVRVAKAELLREQPPSLKDLLRLLRDADSRRGLALVLGSLRSLGRQLAAEQEVAHGA”: the “soluble on expression in E. coli” value is on record as “not soluble”. The entry for “MDSPAWMFTKALSHRQKVTRLYKRCLREVDNWYGGNNLEVRFQKCIIRARFDANADEVDTRKSQILLADGCRQLWEKRHFKPFRFALDPGGSSYDRERESPDEIVDSDQWTLAEREQFPYYFNTREQRKKELLTHWAKIEKAWDEEIASIQTQLPAAAPTVSK” is “not soluble”; for “MDSQKDFNLGDSSKGEKEGMQPSTGNNQFEPFEFLKKMIQPGRVMKRSKNNLSSNEVWSVCRAVIDEFKKEQNLMEVSAPVTVIGDVHGNFHDLYRALLARTEQDITDEQKSNFSTRQFVRDKYVFLGNYIDKGPRSIECICLLFAFKICFPQKYILLRGPHECPSVNSSEFLGVMETFSPNHFKKIHKKFNEAFSWMPLAAVVGQKILCVHGGISPRLTSWEDIRKIKRPLKDATEDPLATDLLFADTLDFDLIHIPTRKPKYEFNVIRNMSVMYNEAAVTQFCEKFNLKLIIRSHMKVPFGYRFFSEKRLITIFNSTGFQNESNYGAVLKIDGNAKITIISLLPQQSKAEVQEKAHHSDMTSECNTMSSKGP” it is “not soluble”.
